{"source": "paper doi:10.1101/2022.02.15.480544", "about": "(bioRxiv, 2022)", "proteins": {"B1": {"name": "Bacillus subtilis RecA, wild type, hexa-histidine fusion (natural protein, B. subtilis, UniProt P16971 11-348, looked up)", "chain": "ALKQIEKQFGKGSIMKLGEKTDTRISTVPSGSLALDTALGIGGYPRGRIIEVYGPESSGKTTVALHAIAEVQQQGGQAAFIDAEHALDPVYAQKLGVNIEELLLSQPDTGEQALEIAEALVRSGAVDIVVVDSVAALVPKAEIEGDMGDSHVGLQARLMSQALRKLSGAINKSKTIAIFINQIREKVGVMFGNPETTPGGRALKFYSSVRLEVRRAEQLKQGNDVMGNKTKIKVVKNKVAPPFRTAEVDIMYGEGISKEGEIIDLGTELDIVQKSGSWYSYEEERLGQGRENAKQFLKENKDIMLMIQEQIREHYGLDNNGVVQQQAEETQEELEFEE"}, "B2": {"name": "Bacillus subtilis RecA K70A (Walker A mutant, lowered ATP binding), hexa-histidine fusion (natural protein, B. subtilis, UniProt P16971 11-348, looked up)", "chain": "ALKQIEKQFGKGSIMKLGEKTDTRISTVPSGSLALDTALGIGGYPRGRIIEVYGPESSGATTVALHAIAEVQQQGGQAAFIDAEHALDPVYAQKLGVNIEELLLSQPDTGEQALEIAEALVRSGAVDIVVVDSVAALVPKAEIEGDMGDSHVGLQARLMSQALRKLSGAINKSKTIAIFINQIREKVGVMFGNPETTPGGRALKFYSSVRLEVRRAEQLKQGNDVMGNKTKIKVVKNKVAPPFRTAEVDIMYGEGISKEGEIIDLGTELDIVQKSGSWYSYEEERLGQGRENAKQFLKENKDIMLMIQEQIREHYGLDNNGVVQQQAEETQEELEFEE"}, "B3": {"name": "Bacillus subtilis RecA K70R (Walker A mutant, no ATPase activity), hexa-histidine fusion (natural protein, B. subtilis, UniProt P16971 11-348, looked up)", "chain": "ALKQIEKQFGKGSIMKLGEKTDTRISTVPSGSLALDTALGIGGYPRGRIIEVYGPESSGRTTVALHAIAEVQQQGGQAAFIDAEHALDPVYAQKLGVNIEELLLSQPDTGEQALEIAEALVRSGAVDIVVVDSVAALVPKAEIEGDMGDSHVGLQARLMSQALRKLSGAINKSKTIAIFINQIREKVGVMFGNPETTPGGRALKFYSSVRLEVRRAEQLKQGNDVMGNKTKIKVVKNKVAPPFRTAEVDIMYGEGISKEGEIIDLGTELDIVQKSGSWYSYEEERLGQGRENAKQFLKENKDIMLMIQEQIREHYGLDNNGVVQQQAEETQEELEFEE"}}, "data": [{"target": "the molecule itself", "test": "mass photometry", "values": [{"protein": "B1", "stoichiometry N": 2}, {"protein": "B2", "stoichiometry N": 2}, {"protein": "B3", "stoichiometry N": 2}]}]}
